Measurements: PMC11194072, “Cdc13 exhibits dynamic DNA strand exchange in the presence of telomeric DNA”

Experiments:
[1] = molecular target: T1, Cdc13 full-length (Sf9) (Saccharomyces cerevisiae, UniProt P32797 1-924); assay: EMSA; IR700-Tel50G prebound; 25 mM HEPES pH 8.0, 5% glycerol, 50 mM NaOAc, 150 mM NaCl, 7.5 mM MgCl2, 0.01% Tween 20; EMSA/DDE at 30°C; BLI without glycerol at ~23°C; details: protein: recombinant; tags: N-terminal SUMO-His6 tag, C-terminal FLAG tag; chain copies: 2; label: 5' IRDye700; single strand
T1 sequence: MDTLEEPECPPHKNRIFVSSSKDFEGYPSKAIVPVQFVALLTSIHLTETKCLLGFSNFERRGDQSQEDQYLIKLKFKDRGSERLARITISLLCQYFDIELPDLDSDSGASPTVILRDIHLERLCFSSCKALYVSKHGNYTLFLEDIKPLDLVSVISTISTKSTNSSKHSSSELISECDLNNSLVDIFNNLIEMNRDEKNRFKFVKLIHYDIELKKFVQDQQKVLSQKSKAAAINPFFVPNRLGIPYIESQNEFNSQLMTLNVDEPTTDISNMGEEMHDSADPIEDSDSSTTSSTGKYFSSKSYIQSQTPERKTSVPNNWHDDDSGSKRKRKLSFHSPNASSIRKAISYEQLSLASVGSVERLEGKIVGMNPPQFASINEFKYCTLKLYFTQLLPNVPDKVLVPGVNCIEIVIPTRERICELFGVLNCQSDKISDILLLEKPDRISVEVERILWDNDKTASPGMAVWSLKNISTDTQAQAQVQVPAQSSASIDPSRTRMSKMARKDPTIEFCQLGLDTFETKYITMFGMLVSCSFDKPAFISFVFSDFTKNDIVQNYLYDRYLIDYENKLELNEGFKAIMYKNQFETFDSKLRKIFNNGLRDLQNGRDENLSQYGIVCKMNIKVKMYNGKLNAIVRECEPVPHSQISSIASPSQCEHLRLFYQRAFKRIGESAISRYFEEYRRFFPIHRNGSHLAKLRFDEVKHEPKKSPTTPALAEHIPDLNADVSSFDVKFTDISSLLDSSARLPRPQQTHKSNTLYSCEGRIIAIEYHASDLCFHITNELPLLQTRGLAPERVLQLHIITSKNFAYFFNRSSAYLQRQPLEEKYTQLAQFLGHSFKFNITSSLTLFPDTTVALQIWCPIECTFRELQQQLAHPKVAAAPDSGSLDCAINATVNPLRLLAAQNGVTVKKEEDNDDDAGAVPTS

[2] = molecular target: T1, Cdc13 full-length (Sf9); assay: competition; EC50; prebound IR700-Tel30G 2 nM; 25 mM HEPES pH 8.0, 5% glycerol, 50 mM NaOAc, 150 mM NaCl, 7.5 mM MgCl2, 0.01% Tween 20; EMSA/DDE at 30°C; BLI without glycerol at ~23°C; details: protein: recombinant; tags: N-terminal SUMO-His6 tag, C-terminal FLAG tag; chain copies: 2; single strand
[3] = molecular target: T2, Cdc13 OB3 (DBD) (Saccharomyces cerevisiae, UniProt P32797 497-694); assay: EMSA; 7.5 nM OB3, 2 nM IR700-Tel11G; complex stable to 0.4-50 nM unlabelled Tel11G; 25 mM HEPES pH 8.0, 5% glycerol, 50 mM NaOAc, 150 mM NaCl, 7.5 mM MgCl2, 0.01% Tween 20; EMSA/DDE at 30°C; BLI without glycerol at ~23°C; details: protein: recombinant; tags: N-terminal His6; label: none, or 5' IRDye700; single strand
T2 sequence: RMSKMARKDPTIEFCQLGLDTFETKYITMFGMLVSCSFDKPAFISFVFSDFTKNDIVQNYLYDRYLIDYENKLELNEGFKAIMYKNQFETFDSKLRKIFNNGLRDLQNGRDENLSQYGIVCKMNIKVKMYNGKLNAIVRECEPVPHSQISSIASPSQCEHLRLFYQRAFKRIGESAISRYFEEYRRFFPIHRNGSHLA

[4] = molecular target: T3, Cdc13 full-length (E. coli) (Saccharomyces cerevisiae, UniProt P32797 1-924); assay: competition; prebound IR700-Tel11G, unlabelled Tel11G competes; EC50 only in figure; 25 mM HEPES pH 8.0, 5% glycerol, 50 mM NaOAc, 150 mM NaCl, 7.5 mM MgCl2, 0.01% Tween 20; EMSA/DDE at 30°C; BLI without glycerol at ~23°C; details: protein: recombinant; tags: N-terminal His6-SUMO, C-terminal 3xFLAG; chain copies: 2; label: none, or 5' IRDye700; single strand
T3 sequence: T1 sequence

[5] = molecular target: T1, Cdc13 full-length (Sf9); assay: as above; details: protein: recombinant; tags: N-terminal SUMO-His6 tag, C-terminal FLAG tag; chain copies: 2; label: none, or 5' IRDye700; single strand
[6] = molecular target: T4, RPA heterotrimer (Rfa1-3) (Saccharomyces cerevisiae, UniProt P22336;P26754;P26755 1-621;1-273;1-122); assay: competition; EC50; prebound labelled Tel30G; 25 mM HEPES pH 8.0, 5% glycerol, 50 mM NaOAc, 150 mM NaCl, 7.5 mM MgCl2, 0.01% Tween 20; EMSA/DDE at 30°C; BLI without glycerol at ~23°C; details: protein: recombinant; tags: untagged; copies: 1;1;1; single strand
[7] = molecular target: T4, RPA heterotrimer (Rfa1-3); assay: competition; EC50; prebound labelled Poly(dT)30; 25 mM HEPES pH 8.0, 5% glycerol, 50 mM NaOAc, 150 mM NaCl, 7.5 mM MgCl2, 0.01% Tween 20; EMSA/DDE at 30°C; BLI without glycerol at ~23°C; details: protein: recombinant; tags: untagged; copies: 1;1;1; single strand
[8] = molecular target: T1, Cdc13 full-length (Sf9); assay: EMSA; 2 nM fork; 25 mM HEPES pH 8.0, 5% glycerol, 50 mM NaOAc, 150 mM NaCl, 7.5 mM MgCl2, 0.01% Tween 20; EMSA/DDE at 30°C; BLI without glycerol at ~23°C; details: protein: recombinant; tags: N-terminal SUMO-His6 tag, C-terminal FLAG tag; chain copies: 2; fork 1:2, 20 bp duplex, two 25-nt ssDNA arms
[9] = molecular target: T4, RPA heterotrimer (Rfa1-3); assay: as above; details: protein: recombinant; tags: untagged; copies: 1;1;1; fork 1:2, 20 bp duplex, two 25-nt ssDNA arms
[10] = molecular target: T1, Cdc13 full-length (Sf9); assay: EMSA; 2 nM probe; 25 mM HEPES pH 8.0, 5% glycerol, 50 mM NaOAc, 150 mM NaCl, 7.5 mM MgCl2, 0.01% Tween 20; EMSA/DDE at 30°C; BLI without glycerol at ~23°C; details: protein: recombinant; tags: N-terminal SUMO-His6 tag, C-terminal FLAG tag; chain copies: 2; label: none, or 5' IRDye700/800; single strand
[11] = molecular target: T4, RPA heterotrimer (Rfa1-3); assay: as above; details: protein: recombinant, tags: untagged, copies: 1;1;1, single strand
[12] = molecular target: T4, RPA heterotrimer (Rfa1-3); assay: competition; EC50; prebound labelled Poly(dT)30; text also gives 15 nM; 25 mM HEPES pH 8.0, 5% glycerol, 50 mM NaOAc, 150 mM NaCl, 7.5 mM MgCl2, 0.01% Tween 20; EMSA/DDE at 30°C; BLI without glycerol at ~23°C; details: protein: recombinant; tags: untagged; copies: 1;1;1; label: none, or 5' IRDye700/800; single strand
[13] = molecular target: T1, Cdc13 full-length (Sf9); assay: EMSA; 2 nM probe; near probe concentration, not a reliable Kd; 25 mM HEPES pH 8.0, 5% glycerol, 50 mM NaOAc, 150 mM NaCl, 7.5 mM MgCl2, 0.01% Tween 20; EMSA/DDE at 30°C; BLI without glycerol at ~23°C; details: protein: recombinant; tags: N-terminal SUMO-His6 tag, C-terminal FLAG tag; chain copies: 2; label: 5' IRDye700 or IRDye800; single strand
[14] = molecular target: T5, Cdc13 OB1 (Saccharomyces cerevisiae, UniProt P32797 1-230); assay: EMSA; 7.8-1000 nM OB1; 25 mM HEPES pH 8.0, 5% glycerol, 50 mM NaOAc, 150 mM NaCl, 7.5 mM MgCl2, 0.01% Tween 20; EMSA/DDE at 30°C; BLI without glycerol at ~23°C; details: protein: recombinant; tags: N-terminal His6-SUMO, C-terminal 3xFLAG; chain copies: 2; label: 5' IRDye700 or IRDye800; single strand
T5 sequence: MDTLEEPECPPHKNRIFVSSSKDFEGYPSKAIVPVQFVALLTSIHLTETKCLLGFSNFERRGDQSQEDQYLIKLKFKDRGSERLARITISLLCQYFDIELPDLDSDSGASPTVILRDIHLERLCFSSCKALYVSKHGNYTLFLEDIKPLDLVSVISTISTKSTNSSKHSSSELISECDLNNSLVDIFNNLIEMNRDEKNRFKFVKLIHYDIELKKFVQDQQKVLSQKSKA

T4 sequence (P22336 whole entry, chain 1 of 3): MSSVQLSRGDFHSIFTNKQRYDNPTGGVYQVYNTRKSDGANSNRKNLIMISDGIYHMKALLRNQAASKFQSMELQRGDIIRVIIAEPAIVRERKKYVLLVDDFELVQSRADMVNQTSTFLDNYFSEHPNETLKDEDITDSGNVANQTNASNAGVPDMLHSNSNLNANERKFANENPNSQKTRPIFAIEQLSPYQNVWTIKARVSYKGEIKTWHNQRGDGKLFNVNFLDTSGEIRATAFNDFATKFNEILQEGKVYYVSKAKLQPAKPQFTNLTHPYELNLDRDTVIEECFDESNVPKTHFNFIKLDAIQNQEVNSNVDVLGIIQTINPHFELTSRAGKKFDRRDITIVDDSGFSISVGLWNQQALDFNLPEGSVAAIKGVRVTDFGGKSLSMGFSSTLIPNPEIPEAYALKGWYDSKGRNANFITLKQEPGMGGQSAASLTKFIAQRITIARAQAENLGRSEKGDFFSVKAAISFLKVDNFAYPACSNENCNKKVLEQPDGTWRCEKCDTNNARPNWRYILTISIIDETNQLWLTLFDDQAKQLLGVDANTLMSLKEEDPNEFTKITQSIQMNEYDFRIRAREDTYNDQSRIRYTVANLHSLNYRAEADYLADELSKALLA
T4 sequence (P26754 whole entry, chain 2 of 3): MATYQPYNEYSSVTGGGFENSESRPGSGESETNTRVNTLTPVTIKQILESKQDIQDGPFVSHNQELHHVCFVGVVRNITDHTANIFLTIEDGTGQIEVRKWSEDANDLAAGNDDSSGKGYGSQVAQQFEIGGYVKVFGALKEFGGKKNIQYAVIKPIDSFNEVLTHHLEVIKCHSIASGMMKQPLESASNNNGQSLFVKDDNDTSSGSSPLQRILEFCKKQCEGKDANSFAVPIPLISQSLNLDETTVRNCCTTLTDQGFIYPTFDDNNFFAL
T4 sequence (P26755 whole entry, chain 3 of 3): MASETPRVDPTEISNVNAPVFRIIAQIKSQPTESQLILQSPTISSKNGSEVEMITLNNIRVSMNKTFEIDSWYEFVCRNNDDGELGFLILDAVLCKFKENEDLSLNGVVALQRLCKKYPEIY

B1: IR700-Tel50G (MB1931) (ssDNA)
DNA: GTGTGGGTGTGGTGTGGGTGTGGTGTGGGTGTGTGGTGTGGTGTGTGTG
Does B1 bind [1]?
Result: binds

B2: Tel50G unlabelled (MB1117) (ssDNA)
DNA: GTGTGGGTGTGGTGTGGGTGTGGTGTGGGTGTGTGGGTGTGGTGTGGGTG
How did the IC50 [2] turn out when B2 was run?
The IC50 was 0.96 nM.

B3: Tel11G (MB1983 / MB2018 IR700) (ssDNA)
DNA: GTGTGGGTGTG
Does B3 bind [3]?
Result: binds

Does B3 bind [4]?
Result: binds

Does B3 bind [5]?
Result: binds

B4: Tel30G unlabelled (MB915) (ssDNA)
DNA: GTGTGGGTGTGGTGTGGGTGTGGTGTGGGT
Which results are given for B4?
IC50 [6]: 5.44 nM; IC50 [2]: 0.89 nM; IC50 [7]: 5.1 nM

B5: Tel25G fork (MB1169/MB1170) (mixed)
DNA 1: GGTGTGGTGTGGGTGTGGTGTGGGTGTGTCACTCACATAGCGTTC
DNA 2: GAACGCTATGTGAGTGACACTGGGTGTGGTGTGGGTGTGGTGTGG
For B5, which “apparent K (half saturation)” value [8] is on record?
Its value is 3.3 ± 0.5 nM.

And the “apparent K (half saturation)” value [9]?
Its value is 2.5 ± 0.6 nM.

B6: Poly(dT)30 (MB464 / MB1755 IR700 / MB1982 IR800) (ssDNA)
DNA: TTTTTTTTTTTTTTTTTTTTTTTTTTTTTT
What does the source list for B6?
apparent K (half saturation) [10]: 26 ± 3 nM; apparent K (half saturation) ([11]; label: none, or 5' IRDye700/800): 7 ± 0.5 nM; IC50 [12]: 15.1 nM

B7: Tel30G labelled (MB1930 IR700 / MB1981 IR800) (ssDNA)
DNA: CGCCATGCTGATCCGTGTGGTGTGTGTGGG
B7 was tested. Which “apparent K (half saturation)” value ([11]; label: 5' IRDye700 or IRDye800) did it give?
The value was 2.4 ± 0.5 nM.

What about the “apparent K (half saturation)” value [13] of the same binder?
Its value is 3.7 ± 0.3 nM.

What about the “apparent K (half saturation)” value [14] of the same binder?
Its value is 830 nM.
